Test results as given in patent EP4674868A1 (Jiangsu Hengrui Pharmaceuticals Co., Ltd., dated 2026).
Where two headings read alike, the source gives them in different places.

Legend:
[1] = target: T1, human 4-1BB on the surface of HEK293 cells (HEK293-Hu4-1BB) (human, UniProt Q07011 24-255); test: cell-based or functional assay
[2] = target: T2, human CD40 on the surface of HEK293 cells (HEK293-HuCD40) (human, UniProt P25942 21-277); test: FACS, HEK293-HuCD40 cells
T2 construct: whole, on cells; Also used as the target of the CD40/NF-κB reporter assays in HEK-Blue CD40L cells; also called cell strain highly expressing human CD40; CD40 of HEK-Blue CD40L reporter cells

[3] = target: T2, human CD40 on the surface of HEK293 …; test: cell-based or functional assay
[4] = target: T3, human FAP on the surface of CHO-K1 cells (CHO-K1-HuFAP) (human, UniProt Q12884 1-760); test: FACS, CHO-K1-HuFAP cells
T3 construct: whole, on cells; also called CHO cell line overexpressing human FAP; FAP on the surface of CHO-K1-HuFAP cells

[5] = target: T1, human 4-1BB on the surface of HEK293 …; test: cell-based or functional assay; remark: listed apart in the source
[6] = target: T2, human CD40 on the surface of HEK293 …; test: FACS, HEK293-HuCD40 cells; remark: listed apart in the source
[7] = target: T1, human 4-1BB on the surface of HEK293 …; test: FACS, HEK293-Hu4-1BB cells
[8] = target: T1, human 4-1BB on the surface of HEK293 …; test: FACS, HEK293-Hu4-1BB cells; remark: listed apart in the source
[9] = target: T1, human 4-1BB on the surface of HEK293 …; test: FACS, HEK293-Hu4-1BB cells; remark: listed apart in the source
[10] = target: T3, human FAP on the surface of CHO-K1 …; test: FACS, CHO-K1-HuFAP cells; remark: listed apart in the source
[11] = target: T1, human 4-1BB on the surface of HEK293 …; test: cell-based or functional assay; remark: listed apart in the source
[12] = target: T3, human FAP on the surface of CHO-K1 …; test: FACS, CHO-K1-HuFAP cells; remark: listed apart in the source
[13] = target: T2, human CD40 on the surface of HEK293 …; test: FACS, HEK293-HuCD40 cells; remark: listed apart in the source
[14] = target: T2, human CD40 on the surface of HEK293 …; test: cell-based or functional assay; remark: listed apart in the source

4-1BB/NF-κB luciferase reporter, CD40-crosslinked, Fold change in Emax [1]: 2.3 fold | 4-1BB/NF-κB luciferase reporter, FAP-crosslinked, EC50 [1]: 0.04 nM | 4-1BB/NF-κB luciferase reporter, FAP-crosslinked, Fold change in Emax [1]: 9.95 fold | 4-1BB/NF-κB luciferase reporter, uncrosslinked, Fold change in Emax [1]: 5.97 fold | Maximum fluorescence value [2]: 106 | CD40/NF-κB reporter (HEK-Blue CD40L), 4-1BB-crosslinked, Fold change in Emax [3]: 1 fold | CD40/NF-κB reporter (HEK-Blue CD40L), FAP-crosslinked, Fold change in Emax [3]: 1 fold | CD40/NF-κB reporter (HEK-Blue CD40L), uncrosslinked, Fold change in Emax [3]: 0.98 fold | EC50 [4]: 1.33 nM | Maximum fluorescence value [4]: 48400 | 4-1BB/NF-κB luciferase reporter, CD40-crosslinked, Fold change in Emax [5]: 1.77 fold | 4-1BB/NF-κB luciferase reporter, FAP-crosslinked, EC50 [5]: 0.04 nM | 4-1BB/NF-κB luciferase reporter, FAP-crosslinked, Fold change in Emax [5]: 15.4 fold | 4-1BB/NF-κB luciferase reporter, uncrosslinked, Fold change in Emax [5]: 6.03 fold | Maximum fluorescence value [6]: 89 | EC50 [7]: 0.573 nM | Maximum fluorescence value [7]: 8440 | EC50 [8]: 0.67 nM | Maximum fluorescence value [8]: 8200 | Maximum fluorescence value [9]: 10800 | EC50 [10]: 1.92 nM | Maximum fluorescence value [10]: 112000 | 4-1BB/NF-κB luciferase reporter, CD40-crosslinked, Fold change in Emax [11]: 1.22 fold | 4-1BB/NF-κB luciferase reporter, FAP-crosslinked, EC50 [11]: 0.032 nM | 4-1BB/NF-κB luciferase reporter, FAP-crosslinked, Fold change in Emax [11]: 9.38 fold | 4-1BB/NF-κB luciferase reporter, uncrosslinked, Fold change in Emax [11]: 3.6 fold | EC50 [12]: 2.48 nM | Maximum fluorescence value [12]: 44200 | Maximum fluorescence value [13]: 2330 | CD40/NF-κB reporter (HEK-Blue CD40L), 4-1BB-crosslinked, Fold change in Emax [14]: 1 fold | CD40/NF-κB reporter (HEK-Blue CD40L), FAP-crosslinked, Fold change in Emax [14]: 1 fold | CD40/NF-κB reporter (HEK-Blue CD40L), uncrosslinked, Fold change in Emax [14]: 0.99 fold
B1: RO7122290 (FAP/4-1BBL bispecific antibody molecule, control) (bispecific antibody, human IgG1, kappa, L234A L235A)
heavy 1: not shown
heavy 2: EVQLLESGGGLVQPGGSLRLSCAASGFTFSSYAMSWVRQAPGKGLEWVSAIIGSGASTYYADSVKGRFTISRDNSKNTLYLQMNSLRAEDTAVYYCAKGWFGGFNYWGQGTLVTVSSASTKGPSVFPLAPSSKSTSGGTAALGCLVKDYFPEPVTVSWNSGALTSGVHTFPAVLQSSGLYSLSSVVTVPSSSLGTQTYICNVNHKPSNTKVDKKVEPKSCDKTHTCPPCPAPEAAGGPSVFLFPPKPKDTLMISRTPEVTCVVVDVSHEDPEVKFNWYVDGVEVHNAKTKPREEQYNSTYRVVSVLTVLHQDWLNGKEYKCKVSNKALGAPIEKTISKAKGQPREPQVCTLPPSRDELTKNQVSLSCAVKGFYPSDIAVEWESNGQPENNYKTTPPVLDSDGSFFLVSKLTVDKSRWQQGNVFSCSVMHEALHNHYTQKSLSLSPGK
light 1: not shown
light 2: EIVLTQSPGTLSLSPGERATLSCRASQSVTSSYLAWYQQKPGQAPRLLINVGSRRATGIPDRFSGSGSGTDFTLTISRLEPEDFAVYYCQQGIMLPPTFGQGTKVEIKRTVAAPSVFIFPPSDEQLKSGTASVVCLLNNFYPREAKVQWKVDNALQSGNSQESVTEQDSKDSTYSLSSTLTLSKADYEKHKVYACEVTHQGLSSPVTKSFNRGEC
